Results taken from US20190062438A1 (CSL, published 2019).

Tests used:
shCD131 F103A = target: T1, shCD131 F103A (human, UniProt P32927 17-438); assay: SPR, Fab over captured mutant
T1 construct: C-terminal 6xHis
T1 sequence: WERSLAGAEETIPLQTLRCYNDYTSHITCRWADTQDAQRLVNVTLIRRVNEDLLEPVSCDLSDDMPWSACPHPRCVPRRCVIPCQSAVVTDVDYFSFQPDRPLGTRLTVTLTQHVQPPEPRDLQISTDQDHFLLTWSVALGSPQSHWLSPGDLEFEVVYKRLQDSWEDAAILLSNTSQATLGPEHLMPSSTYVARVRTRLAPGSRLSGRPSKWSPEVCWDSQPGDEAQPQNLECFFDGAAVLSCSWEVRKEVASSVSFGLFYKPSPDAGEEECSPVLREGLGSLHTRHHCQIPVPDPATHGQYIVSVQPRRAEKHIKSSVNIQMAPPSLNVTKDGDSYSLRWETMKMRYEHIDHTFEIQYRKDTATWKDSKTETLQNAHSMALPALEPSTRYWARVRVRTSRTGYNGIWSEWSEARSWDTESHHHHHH
Protocol: (§1) As shβc is a dimer, kinetics assays were performed with shβc captured on the sensor surface, and purified Fab injected as the analyte. Avidity effects were avoided by the use of Fab rather than whole IgG.
(§2) shCD131 was captured on spots 1 and 5 of each flow cell for 2 minutes at a concentration of 0.4 μg/ml. […] For some analysis purified Fab was injected over each flow cell for 3 minutes and dissociation was monitored for a further 10 minutes. Regeneration of the surface was performed after each cycle with a 40 second injection of 25 mM glycine, pH 2.0. The analysis was performed with Fabs at several concentrations between 100 and 0.31 nM, with each concentration analyzed twice and in random order. The analysis was performed at a flow rate of 30 μl/min in HBS-EP buffer (10 mM Hepes, 150 mM NaCl, 3 mM EDTA, 0.005% Tween 20, pH 7.4) at 37° C. Responses from spots 2 and 4 of each flow cell, (in which shβc was not captured, but otherwise treated identically), were subtracted from those of spots 1 and 5 respectively to produce reference subtracted data. Reference subtracted responses from a blank injection comprising buffer alone were subtracted from the resultant sensorgrams to produce double referenced data suitable for kinetic analysis. Double-referenced sensorgrams were fitted using non-linear regression to a model describing 1:1 kinetics, including a term for mass transport limitation. The Rₘₐₓ value was fitted locally to account for slight deviations in the level of sCD131 captured, with association rate (kₐ), dissociation rate (kd) and equilibrium dissociation constant (KD) fitted globally.
(§3) Mapping of the shCD131 epitope was performed by measurement of the affinity of Fabs for various alanine point mutants of shCD131 essentially as described above, with the following exceptions. Each shCD131 mutant was captured for 120 seconds at concentrations between 1 and 5 μg/ml. For kinetic analysis, purified recombinant Fabs were injected for 2 minutes, and dissociation was monitored for a further 2 minutes. […] Fab concentrations ranged from 16 μM to 3.9 nM in two-fold dilutions.

shCD131 Y365A = target: T2, shCD131 Y365A (human, UniProt P32927 17-438); assay: SPR, Fab over captured mutant
T2 construct: C-terminal 6xHis
T2 sequence: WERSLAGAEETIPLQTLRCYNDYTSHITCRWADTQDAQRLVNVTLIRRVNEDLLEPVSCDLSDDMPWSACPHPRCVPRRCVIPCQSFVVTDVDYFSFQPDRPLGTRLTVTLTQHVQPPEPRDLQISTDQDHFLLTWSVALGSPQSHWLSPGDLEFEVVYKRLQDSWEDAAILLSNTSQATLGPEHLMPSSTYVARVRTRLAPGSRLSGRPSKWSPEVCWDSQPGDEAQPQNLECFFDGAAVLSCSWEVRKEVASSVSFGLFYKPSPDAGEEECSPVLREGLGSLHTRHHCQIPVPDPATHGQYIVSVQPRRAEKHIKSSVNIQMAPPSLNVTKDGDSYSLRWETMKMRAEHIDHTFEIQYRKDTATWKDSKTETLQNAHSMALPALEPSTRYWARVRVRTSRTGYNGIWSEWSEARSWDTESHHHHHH
Protocol: as §1, §2, §3

shCD131 I338A = target: T3, shCD131 I338A (human, UniProt P32927 17-438); assay: SPR, Fab over captured mutant
T3 construct: C-terminal 6xHis; also called 1338A
T3 sequence: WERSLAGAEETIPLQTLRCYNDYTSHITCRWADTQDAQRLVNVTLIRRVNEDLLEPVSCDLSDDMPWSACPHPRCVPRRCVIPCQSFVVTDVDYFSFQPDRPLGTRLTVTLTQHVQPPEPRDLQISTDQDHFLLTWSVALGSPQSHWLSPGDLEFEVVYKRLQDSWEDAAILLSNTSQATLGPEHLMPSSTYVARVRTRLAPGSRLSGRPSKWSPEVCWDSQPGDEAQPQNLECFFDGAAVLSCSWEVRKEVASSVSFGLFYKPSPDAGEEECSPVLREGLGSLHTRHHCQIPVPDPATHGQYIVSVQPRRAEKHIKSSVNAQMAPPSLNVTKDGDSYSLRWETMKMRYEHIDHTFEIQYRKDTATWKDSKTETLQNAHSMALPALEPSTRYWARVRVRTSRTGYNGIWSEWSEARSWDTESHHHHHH
Protocol: as §1, §2, §3

[1] = target: T4, soluble Homo sapiens CD131 comprising a C-terminal 6xHis tag (human, UniProt P32927 17-438); assay: SPR, Fab over captured shCD131
T4 construct: truncated after Ser438, C-terminal 6xHis; also called shCD131; shβc
T4 sequence: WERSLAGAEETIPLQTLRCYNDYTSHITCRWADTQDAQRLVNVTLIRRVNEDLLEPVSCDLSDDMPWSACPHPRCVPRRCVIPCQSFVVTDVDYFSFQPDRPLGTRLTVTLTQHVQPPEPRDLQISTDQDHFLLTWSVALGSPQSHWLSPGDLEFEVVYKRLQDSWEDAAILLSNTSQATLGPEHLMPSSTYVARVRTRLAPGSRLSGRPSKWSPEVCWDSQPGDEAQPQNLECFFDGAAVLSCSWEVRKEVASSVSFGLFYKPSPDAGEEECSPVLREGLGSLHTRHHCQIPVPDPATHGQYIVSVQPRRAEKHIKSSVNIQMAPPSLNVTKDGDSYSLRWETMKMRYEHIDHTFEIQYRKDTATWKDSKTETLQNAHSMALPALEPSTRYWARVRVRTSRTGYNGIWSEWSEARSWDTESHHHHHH
Protocol: Binding kinetics were measured using SPR with a BIAcore™ A-100 instrument (GE Healthcare Life Sciences). An anti-C-terminal Hexa-His antibody (3H3) was immobilized on spots 1, 2, 4 and 5 of each flow cell of a CM-5 sensor chip (GE Healthcare Life Sciences) using amine-coupling chemistry (116). […] As shβc is a dimer, kinetics assays were performed with shβc captured on the sensor surface, and purified Fab injected as the analyte. Avidity effects were avoided by the use of Fab rather than whole IgG.
as §2

binding result (shCD131 F103A): no binding (tested: Fab up to 16 µM) | binding result (shCD131 Y365A): no binding (tested: Fab up to 16 µM) | binding result (shCD131 I338A): no binding (tested: Fab up to 16 µM) | Kd [1]: 49 nM | koff [1]: 0.096 s⁻¹ | kon [1]: 2e+06 M⁻¹ s⁻¹
B1: 9A2 Fab (Fab, V domains shown)
VH: EVQLLESGGGLVQPGGSLRLSCAASGFTFSHYHMLWVRQAPGKGLEWVSSIRSSGGFTYYADSVKGRFTISRDNSKNTLYLQMNSLRAEDTAVYYCARFYDSFFDIWGQGTMVTVSS
VL: DIQMTQSPSSVSASVGDRVTITCRASQGISSWLAWYQQKPGKAPKLLIYAASSLQSGVPSRFSGSGSGTDFTLTISSLQPEDFATYYCQQANSFPITFGQGTRLEIKR
notes: also called recombinant Fab of 9A2
